Test results published in patent publication US20250388664A1 (BIOARCTIC, published 2025).
Changes are numbered by the printed parent chain. In names and notes the source's numbering stands. Values belong to the binder of their own block, whether it stands above or below them.

How the values were obtained:
[1] = molecular target: T1, truncated hTfR1 of SEQ ID NO:122 (human, UniProt P02786 122-760); assay: SPR, FLAG-captured TfR1, scFv injected, 1:1 fit
T1 construct: also called human TfR1; Human TfR1
Procedure: (§1) The interaction was measured using the single cycle kinetics method with a contact time of 120 s at a flow rate of 30 μl/min followed by a dissociation time of 600 s. Regeneration of the surface between cycles was done by injecting 10 mM glycine-HCl, pH 1.7. The binding data was fitted to a 1:1 interaction model. The scFv variants were diluted in HBS-EP+ (Cytiva. #BR100669). Experiments were performed at 25° C.

[2] = molecular target: T2, truncated cTfR1 of SEQ ID NO:123 (cynomolgus monkey, UniProt Q5RDH6 122-760 (Pongo abelii entry)); assay: SPR, FLAG-captured TfR1, scFv injected, 1:1 fit
T2 construct: also called cynomolgus TfR1
T2 chain: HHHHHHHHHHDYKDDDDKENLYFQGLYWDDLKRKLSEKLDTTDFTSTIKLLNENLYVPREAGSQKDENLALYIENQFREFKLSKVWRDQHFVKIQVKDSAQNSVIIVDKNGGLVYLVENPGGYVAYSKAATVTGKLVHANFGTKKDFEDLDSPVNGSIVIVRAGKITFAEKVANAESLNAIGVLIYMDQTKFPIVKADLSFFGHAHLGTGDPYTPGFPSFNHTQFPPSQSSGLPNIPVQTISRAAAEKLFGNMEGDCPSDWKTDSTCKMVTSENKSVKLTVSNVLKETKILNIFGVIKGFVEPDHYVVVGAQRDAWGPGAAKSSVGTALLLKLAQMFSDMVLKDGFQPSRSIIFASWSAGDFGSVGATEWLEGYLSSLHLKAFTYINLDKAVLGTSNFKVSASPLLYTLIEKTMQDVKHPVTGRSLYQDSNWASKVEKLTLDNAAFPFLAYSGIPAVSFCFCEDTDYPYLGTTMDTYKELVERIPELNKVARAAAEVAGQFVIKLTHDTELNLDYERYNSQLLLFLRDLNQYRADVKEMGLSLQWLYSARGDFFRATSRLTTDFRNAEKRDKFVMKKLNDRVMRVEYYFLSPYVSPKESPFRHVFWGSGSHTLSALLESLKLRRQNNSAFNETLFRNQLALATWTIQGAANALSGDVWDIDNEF
Procedure: as §1

[3] = molecular target: T1, truncated hTfR1 of SEQ ID NO:122; assay: SPR follow-up, 4 replicates, FLAG-captured hTfR1, scFv injected
Procedure: as §1
The selected molecules were produced as described above.

T1 sequence (P02786 other isoform, or with tags, fused parts or gaps limits assumed): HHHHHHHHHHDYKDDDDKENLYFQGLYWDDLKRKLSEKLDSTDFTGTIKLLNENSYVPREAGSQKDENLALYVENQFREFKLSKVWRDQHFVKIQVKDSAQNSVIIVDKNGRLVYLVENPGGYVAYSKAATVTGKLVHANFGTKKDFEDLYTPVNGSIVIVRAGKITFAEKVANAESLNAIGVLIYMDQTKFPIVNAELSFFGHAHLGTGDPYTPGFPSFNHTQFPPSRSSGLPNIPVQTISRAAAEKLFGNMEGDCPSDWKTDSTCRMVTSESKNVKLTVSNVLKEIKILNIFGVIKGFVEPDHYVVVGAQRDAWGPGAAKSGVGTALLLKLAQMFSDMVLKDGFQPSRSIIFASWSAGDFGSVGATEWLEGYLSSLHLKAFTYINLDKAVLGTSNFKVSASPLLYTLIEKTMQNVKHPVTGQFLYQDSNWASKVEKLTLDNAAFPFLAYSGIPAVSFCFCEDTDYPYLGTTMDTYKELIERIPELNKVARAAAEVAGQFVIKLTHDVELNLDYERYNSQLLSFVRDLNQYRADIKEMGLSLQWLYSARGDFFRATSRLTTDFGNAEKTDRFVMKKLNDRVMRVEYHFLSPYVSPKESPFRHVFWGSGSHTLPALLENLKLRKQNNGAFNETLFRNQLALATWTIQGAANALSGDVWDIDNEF

- Kd [1]: 68.9 nM
- koff [1]: 0.00434 s⁻¹
- kon [1]: 63500 M⁻¹ s⁻¹
- Kd [2]: 246 nM
- koff [2]: 0.0114 s⁻¹
- kon [2]: 47600 M⁻¹ s⁻¹
- Kd [3]: 66.2 nM
- koff [3]: 0.00439 s⁻¹
- kon [3]: 67100 M⁻¹ s⁻¹
B1: h26D3-HC6_DS, VL-first (scFv)
scFv: DIQMTQSPSSVSASVGDRVTITCKSSQSLLYSTNQKNYLAWYQQKPGKAPKLLIYWASTRESGVPSRFSGSGSGTDFTLTISSLQPEDFATYYCQQYFIYPRTFGCGTKVEIKGGGGSGGGGSGGGGSGGGGSEVQLVQSGAEVKKPGSSVKVSCKASGYIFTDYNMDWVRQAPGQCLEWIGDINPDADTTSYNEKFKGRATLTVDKSTSTAYMELSSLRSEDTAVYYCARGGYSGSSYYHPMDYWGQGTLVTVSS

- Kd [1]: 54 nM
- koff [1]: 0.00465 s⁻¹
- kon [1]: 90400 M⁻¹ s⁻¹
- Kd [2]: 222 nM
- koff [2]: 0.0113 s⁻¹
- kon [2]: 51500 M⁻¹ s⁻¹
B3: h26D3 HC6 DS V11R (scFv)
scFv: HHHHHHGGGGSGGGGSGGGGSGGGGSDIQMTQSPSSVSASVGDRVTITCKSSQSLLYSTNQKNYLAWYQQKPGKAPKLLIYWASTRESGVPSRFSGSGSGTDFTLTISSLQPEDFATYYCQQYFIYPRTFGCGTKVEIKGGGGSGGGGSGGGGSGGGGSEVQLVQSGAERKKPGSSVKVSCKASGYIFTDYNMDWVRQAPGQCLEWIGDINPDADTTSYNEKFKGRATLTVDKSTSTAYMELSSLRSEDTAVYYCARGGYSGSSYYHPMDYWGQGTLVTVSS
notes: also called h26D3 DS V11R

- Kd [1]: 66.2 nM
- koff [1]: 0.00409 s⁻¹
- kon [1]: 61900 M⁻¹ s⁻¹
- Kd [2]: 245 nM
- koff [2]: 0.0115 s⁻¹
- kon [2]: 46700 M⁻¹ s⁻¹
- Kd [3]: 55.5 nM
- koff [3]: 0.00465 s⁻¹
- kon [3]: 87200 M⁻¹ s⁻¹
B6: h26D3 HC6 DS T91S T120K (scFv)
scFv: B3 scFv with R170V, T250S, T279K
notes: also called h26D3 DS T91S T120K

- Kd [1]: 50.5 nM
- koff [1]: 0.0038 s⁻¹
- kon [1]: 76200 M⁻¹ s⁻¹
- Kd [2]: 221 nM
- koff [2]: 0.0108 s⁻¹
- kon [2]: 48600 M⁻¹ s⁻¹
- Kd [3]: 69.5 nM
- koff [3]: 0.00463 s⁻¹
- kon [3]: 67000 M⁻¹ s⁻¹
B8: h26D3 HC6 DS T91S S122K (scFv)
scFv: B3 scFv with R170V, T250S, S281K
notes: also called h26D3 DS T91S S122K

- Kd [1]: 53.7 nM
- koff [1]: 0.00407 s⁻¹
- kon [1]: 76400 M⁻¹ s⁻¹
- Kd [2]: 170 nM
- koff [2]: 0.0103 s⁻¹
- kon [2]: 61500 M⁻¹ s⁻¹
- Kd [3]: 62.6 nM
- koff [3]: 0.00482 s⁻¹
- kon [3]: 85800 M⁻¹ s⁻¹
B9: h26D3 HC6 DS S122K (scFv)
scFv: B3 scFv with R170V, S281K
notes: also called h26D3 DS S122K

Continued, binder first:

B2: h26D3 HC6 DS T91A (scFv)
scFv: B3 scFv with R170V, T250A
notes: also called h26D3 DS T91A
- Kd [1]: 59.7 nM
- koff [1]: 0.00388 s⁻¹
- kon [1]: 65000 M⁻¹ s⁻¹
- Kd [2]: 240 nM
- koff [2]: 0.0111 s⁻¹
- kon [2]: 46200 M⁻¹ s⁻¹

B4: h26D3 HC6 DS S16E (scFv)
scFv: B3 scFv with R170V, S175E
notes: also called h26D3 DS S16E
- Kd [1]: 68.9 nM
- koff [1]: 0.00397 s⁻¹
- kon [1]: 57700 M⁻¹ s⁻¹
- Kd [2]: 277 nM
- koff [2]: 0.0121 s⁻¹
- kon [2]: 43800 M⁻¹ s⁻¹

B5: h26D3 HC6 DS L118S (scFv)
scFv: B3 scFv with R170V, L277S
notes: also called h26D3 DS L118S
- Kd [1]: 60 nM
- koff [1]: 0.00393 s⁻¹
- kon [1]: 66200 M⁻¹ s⁻¹
- Kd [2]: 243 nM
- koff [2]: 0.0107 s⁻¹
- kon [2]: 44000 M⁻¹ s⁻¹

B7: h26D3 HC6 DS S16E L118S (scFv)
scFv: B3 scFv with R170V, S175E, L277S
notes: also called h26D3 DS S16E L118S
- Kd [1]: 67.1 nM
- koff [1]: 0.00387 s⁻¹
- kon [1]: 57800 M⁻¹ s⁻¹
- Kd [2]: 261 nM
- koff [2]: 0.0109 s⁻¹
- kon [2]: 41700 M⁻¹ s⁻¹
